From patent US20210269521A1 (L AND L BIOPHARMA, published 2021)

Assays:
[1] = molecular target: T1, human TIM-3 extracellular domain-human IgG1 Fc fusion protein (human, UniProt Q8TDQ0 22-199); experiment: ELISA; pH 5.5, 37°C 7 days, against 0 day
T1 construct: Made in house or bought (ACROBiosystems TM3-H5258); also called TIM-3-hFc; not shown: human IgG1 Fc

[2] = molecular target: T2, human PD-1 extracellular domain protein expressed in Example 1 (tag not stated) (human, UniProt Q15116 25-170); experiment: ELISA; pH 5.5, 37°C 7 days, against 0 day
T2 construct: extracellular domain; also called PD-1 protein; not shown: human IgG1 Fc or his tag

[3] = molecular target: T1, human TIM-3 extracellular domain-human …; experiment: ELISA; preparation buffer, 37°C 14 days (degraded sample)
[4] = molecular target: T2, human PD-1 extracellular domain protein …; experiment: as above
[5] = molecular target: T2, human PD-1 extracellular domain protein …; experiment: ELISA, EC50 of bispecific over EC50 of the monoclonal control
Procedure: After washing the microplate 5 times with PBST, 50 μl/well TMB chromogenic substrate (KPL, 52-00-03) was added to the microplate, followed by incubating at room temperature for 10-15 min.
PD-1 expressed in Example 1 was diluted to a concentration of 1 μg/ml with PBS buffer, pH 7.4, and added to a 96-well microplate (Corning, CLS3590-100EA) at 50 μl per well, thereby incubating in an incubator at 37° C. for 2 hours. After discarding the liquid, a blocking solution of 5% skimmed milk (Shanghai Shenggong Biological Engineering Co., Ltd., A600669-0250) diluted with PBS was added at 200 μl per well, followed by incubating at 37° C. for 3 hours or 4° C. overnight (16-18 hours)) for blocking. Subsequently, the blocking solution was discarded, and the microplate was washed 5 times with PBST buffer (pH 7.4 PBS containing 0.05% tween-20). […] Subsequently, the microplate was washed 5 times with PBST, then 50 μl/well of 1:2500 diluted HRP-labeled secondary antibody (Jackson Immuno Research, 115-035-003) was added, thereby incubating at 37° C. for 1 hour. After washing the microplate 5 times with PBST, 50 μl/well TMB chromogenic substrate (KPL, 52-00-03) was added, then incubated at room temperature for 5-10 min. Finally, 50 μl/well of 1M H₂SO₄ was added to stop the reaction. […] Go microplate reader (ThermoFisher, 51119200) was used to read the absorption value at 450 nm and the EC50 based on the OD value was calculated.

[6] = molecular target: T1, human TIM-3 extracellular domain-human …; experiment: ELISA; preparation buffer, 37°C 7 days
[7] = molecular target: T2, human PD-1 extracellular domain protein …; experiment: ELISA; preparation buffer, 37°C 7 days
[8] = molecular target: T1, human TIM-3 extracellular domain-human …; experiment: ELISA; preparation buffer, 0 day, against 0 day
[9] = molecular target: T2, human PD-1 extracellular domain protein …; experiment: ELISA; preparation buffer, 0 day, against 0 day
[10] = molecular target: T1, human TIM-3 extracellular domain-human …; experiment: ELISA; pH 5.5, 40°C 0 day (-80°C)
[11] = molecular target: T2, human PD-1 extracellular domain protein …; experiment: ELISA; pH 5.5, 40°C 0 day (-80°C)
[12] = molecular target: T1, human TIM-3 extracellular domain-human …; experiment: ELISA; preparation buffer, 37°C 14 days, against 0 day
[13] = molecular target: T2, human PD-1 extracellular domain protein …; experiment: as above
[14] = molecular target: T1, human TIM-3 extracellular domain-human …; experiment: ELISA
Procedure: Goat-anti-hFc (Jackson, 109-005-008) was diluted to a concentration of 1 μg/ml with PBS buffer (pH 7.4) and added to a 96-well microplate (Corning, CLS3590-100EA) at a volume of 50 μl/well, then incubated in an incubator at 37° C. for 2 hours (Or the antigen TIM-3 was directly used to coat the microplate with a concentration of 0.5 μg/ml, and then the antibody to be tested was directly added). After discarding the liquid, a blocking solution of 5% skimmed milk (skimmed milk powder purchased from Bright) diluted with PBS was added at 200 μl per well, and the microplate was incubated for 2.5 hours at 37° C. or overnight (16-18 hours) at 4° C. for blocking. The blocking solution was discarded, and the microplate was washed 5 times with PBST buffer (PBS with pH 7.4 containing 0.05% tween-20), then 50 μl/well of 0.5 μg/ml TIM-3-hFc (Example 1) was added and incubated for 2 hours in a 37° C. incubator. After incubation, the microplate was washed 6 times with PB ST. 50 μl/well of supernatant (containing testing antibody) or different concentrations of the antibody to be tested was added, and the microplate was incubated at 37° C. for 2 hours and washed 5 times with PBST. 50 μl/well of 1:2500 diluted HRP-labeled secondary antibody (Jackson Immuno Research, 115-035-003) was added to the microplate, incubating at 37° C. for 1 hour. After washing the microplate 5 times with PBST, 50 μl/well TMB chromogenic substrate (KPL, 52-00-03) was added to the microplate, followed by incubating at room temperature for 10-15 min.

[15] = molecular target: T1, human TIM-3 extracellular domain-human …; experiment: ELISA; pH 5.5, 40°C 10 days, against 0 day
[16] = molecular target: T2, human PD-1 extracellular domain protein …; experiment: ELISA; pH 5.5, 40°C 10 days, against 0 day

B1: bispecific antibody LB141 (bispecific antibody, human IgG4 S228P, kappa)
light: EIVLTQSPATLSLSPGERATLSCRASKGVSTSGYSYLHWYQQKPGQAPRLLIYLASYLESGVPARFSGSGSGTDFTLTISSLEPEDFAVYYCQHSRDLPLTFGGGTKVEIKRTVAAPSVFIFPPSDEQLKSGTASVVCLLNNFYPREAKVQWKVDNALQSGNSQESVTEQDSKDSTYSLSSTLTLSKADYEKHKVYACEVTHQGLSSPVTKSFNRGEC
heavy: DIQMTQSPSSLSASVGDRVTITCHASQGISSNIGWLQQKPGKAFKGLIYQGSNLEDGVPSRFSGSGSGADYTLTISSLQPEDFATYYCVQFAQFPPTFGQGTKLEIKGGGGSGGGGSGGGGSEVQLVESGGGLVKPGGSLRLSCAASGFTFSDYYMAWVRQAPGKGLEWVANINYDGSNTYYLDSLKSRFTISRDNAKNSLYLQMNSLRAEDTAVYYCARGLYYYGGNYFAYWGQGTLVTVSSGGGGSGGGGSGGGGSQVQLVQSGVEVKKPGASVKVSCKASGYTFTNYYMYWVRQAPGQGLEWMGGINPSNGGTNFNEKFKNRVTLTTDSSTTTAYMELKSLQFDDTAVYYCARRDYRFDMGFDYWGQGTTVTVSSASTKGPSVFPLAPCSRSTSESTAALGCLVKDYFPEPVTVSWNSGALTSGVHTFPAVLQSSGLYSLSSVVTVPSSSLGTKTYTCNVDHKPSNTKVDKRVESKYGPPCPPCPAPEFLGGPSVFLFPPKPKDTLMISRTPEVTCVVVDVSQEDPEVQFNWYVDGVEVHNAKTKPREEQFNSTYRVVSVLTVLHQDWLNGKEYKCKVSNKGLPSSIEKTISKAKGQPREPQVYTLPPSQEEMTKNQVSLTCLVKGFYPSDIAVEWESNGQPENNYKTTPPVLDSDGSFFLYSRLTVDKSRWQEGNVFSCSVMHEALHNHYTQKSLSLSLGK
notes: ab6VL-(G4S)3-ab6VH-(G4S)3-PemVH-hIgG4 with PemVL-κ
Fold change of EC50 [1]: 1.06 ratio
Fold change of EC50 [2]: 0.89 ratio
EC50 [3]: 14.5 nM
EC50 [4]: 0.446 nM
Multiple of EC50 variation [5]: 1.32 ratio
EC50 [6]: 0.325 nM
EC50 [7]: 0.331 nM
Fold change of EC50 [8]: 1 ratio
Fold change of EC50 [9]: 1 ratio
EC50 [10]: 0.36 nM
EC50 [11]: 0.181 nM
Fold change of EC50 [12]: 47.9 ratio
Fold change of EC50 [13]: 1.18 ratio
EC50 [14]: 0.648 nM
Fold change of EC50 [15]: 1.04 ratio
Fold change of EC50 [16]: 1.19 ratio
